Experimental data: paper PMC4533773 (International Journal of Molecular Medicine, 2015)

Target: T1, AIM (analyte of the BLI experiment) (UniProt Q9QWK4 22-352)
T1 sequence (looked up): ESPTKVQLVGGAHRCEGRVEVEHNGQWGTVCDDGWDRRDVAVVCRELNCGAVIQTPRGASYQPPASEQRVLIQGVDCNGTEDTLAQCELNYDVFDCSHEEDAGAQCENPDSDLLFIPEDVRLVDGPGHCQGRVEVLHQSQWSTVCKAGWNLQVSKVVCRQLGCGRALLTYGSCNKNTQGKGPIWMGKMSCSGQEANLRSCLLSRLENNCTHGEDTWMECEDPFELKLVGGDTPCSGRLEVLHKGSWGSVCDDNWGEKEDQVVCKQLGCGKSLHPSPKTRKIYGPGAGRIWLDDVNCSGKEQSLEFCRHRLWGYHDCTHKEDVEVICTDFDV
Assay: BLI

Kd: 25.3 nM | koff: 0.000999 s⁻¹ | kon: 39600 M⁻¹ s⁻¹
B1: Biotinylated IGFBP-4 (natural protein, UniProt P47879 22-254, looked up)
chain: DEAIHCPPCSEEKLARCRPPVGCEELVREPGCGCCATCALGLGMPCGVYTPRCGSGMRCYPPRGVEKPLRTLMHGQGVCTELSEIEAIQESLQTSDKDESEHPNNSFNPCSAHDHRCLQKHMAKIRDRSKMKIVGTPREEPRPVPQGSCQSELHRALERLAASQSRTHEDLFIIPIPNCDRNGNFHPKQCHPALDGQRGKCWCVDRKTGVKLPGGLEPKGELDCHQLADSFQE
modifications: biotin (labelled after purification; sites not stated)
